Results taken from IntAct's records for PubMed 21423167.

B1: NF-kappa-B inhibitor alpha (Homo sapiens), P25963 (parent)
chain: MFQAAERPQEWAMEGPRDGLKKERLLDDRHDSGLDSMKDEEYEQMVKELQEIRLEPQEVPRGSEPWKQQLTEDGDSFLHLAIIHEEKALTMEVIRQVKGDLAFLNFQNNLQQTPLHLAVITNQPEIAEALLGAGCDPELRDFRGNTPLHLACEQGCLASVGVLTQSCTTPHLHSILKATNYNGHTCLHLASIHGYLGIVELLVSLGADVNAQEPCNGRTALHLAVDLQNPDLVSLLLKCGADVNRVTYQGYSPYQLTWGRPSTRIQQQLGQLTLENLQMLPESEDEESYDTESEFTEFTEDELPYDDCVFGGQRLTL
partner: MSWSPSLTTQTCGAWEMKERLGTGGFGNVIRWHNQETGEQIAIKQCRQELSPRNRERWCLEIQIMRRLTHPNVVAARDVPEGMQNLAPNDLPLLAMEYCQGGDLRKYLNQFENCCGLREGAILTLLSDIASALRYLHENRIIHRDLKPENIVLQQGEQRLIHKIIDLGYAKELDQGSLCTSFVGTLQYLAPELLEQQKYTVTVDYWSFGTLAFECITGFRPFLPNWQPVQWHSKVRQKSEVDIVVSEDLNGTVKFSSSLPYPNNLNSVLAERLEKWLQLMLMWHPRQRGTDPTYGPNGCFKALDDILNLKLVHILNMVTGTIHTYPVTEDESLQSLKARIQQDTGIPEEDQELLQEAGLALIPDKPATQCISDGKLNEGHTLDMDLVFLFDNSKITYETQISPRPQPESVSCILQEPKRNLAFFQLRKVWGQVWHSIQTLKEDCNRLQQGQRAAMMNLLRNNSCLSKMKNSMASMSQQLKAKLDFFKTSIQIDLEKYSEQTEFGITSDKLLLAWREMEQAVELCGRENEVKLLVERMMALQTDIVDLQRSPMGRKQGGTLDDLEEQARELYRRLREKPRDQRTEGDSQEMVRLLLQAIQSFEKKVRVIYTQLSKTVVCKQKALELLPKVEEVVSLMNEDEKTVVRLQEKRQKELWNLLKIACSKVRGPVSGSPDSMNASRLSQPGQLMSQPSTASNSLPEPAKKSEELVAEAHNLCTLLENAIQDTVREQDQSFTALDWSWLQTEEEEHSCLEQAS

Variants of: B1
Conditions: with ikkb_human IKBKB

effect of a mutation on the interaction	Variant
decreasing interaction	MFQAAERPQEWAMEGPRDGLKKERLLDDRHDAGLDAMKDEEYEQMVKELQEIRLEPQEVPRGSEPWKQQLTEDGDSFLHLAIIHEEKALTMEVIRQVKGDLAFLNFQNNLQQTPLHLAVITNQPEIAEALLGAGCDPELRDFRGNTPLHLACEQGCLASVGVLTQSCTTPHLHSILKATNYNGHTCLHLASIHGYLGIVELLVSLGADVNAQEPCNGRTALHLAVDLQNPDLVSLLLKCGADVNRVTYQGYSPYQLTWGRPSTRIQQQLGQLTLENLQMLPESEDEESYDTESEFTEFTEDELPYDDCVFGGQRLTL [S32A;S36A]
